# Measurements taken from patent publication US20160193316A1 (priority 1994, published 2016).
# Tests used:
# DRB1*0401 (DR4w4) = target: T1, DRB1*0401 (DR4w4) (Homo sapiens, UniProt P01903+P01911, A100K/A169T/F76Y/I96L/K127E/L162R/M171V/N62H/P40V/Q125Y/R42H/S133A/S149N/S66Y/V115G/V209L/W38E); assay: HLA class II peptide binding assay; settings: for DR4w4 binding data: Table XIXb; for DR4w4 binding information: unit not given
# T1 construct: endogenous in cells; host or cells: Preiss
# DRB1*0802 (DR8w2) = target: T2, DRB1*0802 (DR8w2) (Homo sapiens, UniProt P01903+P01911, A100R/A103L/A169T/F76Y/H45Y/I96F/K41T/L162R/M171V/P40S/Q125H/Q178H/Q39Y/Q99D/R218S/R42G/S66Y/V115G/W38E); assay: biochemical; type: binding
# T2 construct: endogenous in cells; host or cells: OLL
# DRB1*1201 (DR5w12) = target: T3, DRB1*1201 (DR5w12) (Homo sapiens, UniProt P01903+P01911, A100R/A169T/D57E/D86V/F55L/H45Y/K41T/L162R/M171V/P40S/Q125H/Q178H/Q39Y/Q99D/R42G/S66L/T262R/V114A/V67L/W38E/Y59H/Y61H/Y89S); assay: HLA class II peptide binding assay; settings: for DR5w12 binding data: Table XIXb; for DR5w12 binding information: unit not given
# T3 construct: endogenous in cells; host or cells: Herluf
# DRB1*0301 (DR3) = target: T4, DRB1*0301 (DR3) (Homo sapiens, UniProt P01903+P01911, A100K/A102G/A103R/A169T/F55Y/I96L/K41T/L162R/M171V/P40S/Q125H/Q178H/Q39Y/R42S/S66N/T106N/T262R/W38E/Y61H); assay: HLA class II peptide binding assay (pH 4.5); settings: unit not given
# T4 construct: endogenous in cells; host or cells: MAT
# HLA-A*0301 = target: T5, HLA-A*0301 (Homo sapiens, UniProt P04439); assay: HLA class I peptide binding assay; settings: for A*0301 (binding information): Table XVI, Malaria A3 motif peptides; for A*301 (binding data): Malaria A03 supermotif peptides
# T5 construct: endogenous in cells; host or cells: GM3107
# DRB1*0101 (DR1) = target: T6, DRB1*0101 (DR1) (Homo sapiens, UniProt P01903+P01911, A100R/D57E/F55L/F60I/F76Y/I96L/L162R/M171V/P40L/Q125E/R42F/V115G/Y59C); assay: HLA class II peptide binding assay; settings: for DR1 binding data: Table XIXb, Malaria Super Motif Peptides With Binding Data; for DR1 binding information: unit not given
# T6 construct: endogenous in cells; host or cells: LG2
# DRB1*0405 (DR4w15) = target: T7, DRB1*0405 (DR4w15) (Homo sapiens, UniProt P01903+P01911, A100R/A169T/D86S/F76Y/I96L/K127E/L162R/M171V/N62H/P40V/Q125Y/R42H/S133A/S149N/S66Y/V115G/V209L/W38E); assay: HLA class II peptide binding assay; settings: for DR4w15 binding data: Table XIXb; for DR4w15 binding information: unit not given
# T7 construct: endogenous in cells; host or cells: KT3
# DRB1*0701 (DR7) = target: T8, DRB1*0701 (DR7) (Homo sapiens, UniProt P01903+P01911, A100R/A102G/A103Q/D57E/D86V/E43K/F76Y/K127E/L162R/M171V/P40G/Q125H/Q99D/R33Q/R42Y/R54Q/S133A/S66F/T210M/V115G/Y107V/Y59L/Y89S); assay: biochemical; type: binding
# T8 construct: endogenous in cells; host or cells: Pitout
# DRB1*1101 (DR5w11) = target: T9, DRB1*1101 (DR5w11) (Homo sapiens, UniProt P01903+P01911, A100R/A169T/A87E/I96F/K41T/L162R/M171V/P40S/Q125H/Q178H/Q39Y/Q99D/R42S/S66Y/T262R/V115G/W38E); assay: biochemical; type: binding
# T9 construct: endogenous in cells; host or cells: Sweig
# DRB5*0101 (DR2w2β2) = target: T10, DRB5*0101 (DR2w2β2) (Homo sapiens, UniProt P01903+Q30154); type: binding
# T10 construct: expressed in transfected cells; host or cells: L416.3 (fibroblasts) or GM3107
# [1] = DR3a motif peptides, exemplary 15-mer containing the core sequence
# [2] = binding value for HLA-A*0301, unit not given
# [3] = binding value to HLA-A*0301, unit not given
# [4] = HLA-A*0301 binding value, unit not given
# T6 sequence (P01903 26-254 partner, other chains not shown): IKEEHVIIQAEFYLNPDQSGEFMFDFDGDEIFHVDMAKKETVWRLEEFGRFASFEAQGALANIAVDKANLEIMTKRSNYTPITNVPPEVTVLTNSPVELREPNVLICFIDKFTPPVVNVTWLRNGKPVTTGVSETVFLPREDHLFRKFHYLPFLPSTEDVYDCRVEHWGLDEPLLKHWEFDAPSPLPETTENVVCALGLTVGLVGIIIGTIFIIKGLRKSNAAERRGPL
# T1 sequence (P01903 26-254 partner, other chains not shown): as above
# T9 sequence (P01903 26-254, other chains not shown): as the sequence (P01903 26-254 partner, other chains not shown) above
sequence,measurement,setting,value
YKFVVPGAA,DR4w4 binding data,DRB1*0401 (DR4w4),1.0000
same,DR8w2 binding data,DRB1*0802 (DR8w2),2.5000
same,DR5w12 binding data,DRB1*1201 (DR5w12),0.3500
LSTEWSPCS,DR3 binding information,DRB1*0301 (DR3); [1],-0.0033
ALFFITFNIC,A*0301 (binding information),HLA-A*0301; [2],1.1000
FQDEENIGI,DR3 binding information,DRB1*0301 (DR3); [1],-0.0033
VTPEQPQGD,DR3 binding information,DRB1*0301 (DR3); [1],-0.0033
LALFFTIIFNK,A*301 (binding data),"HLA-A*0301; binding value, no unit given",0.014
CGKGIRSRKR,A*0301 (binding information),HLA-A*0301; [3],0.0002
YREEVCNDE,DR3 binding information,DRB1*0301 (DR3); [1],-0.0033
DLERTICASK,A*301 (binding data),"HLA-A*0301; binding value, no unit given",0.0001
FKPNDKSLY,DR3 binding information,DRB1*0301 (DR3); Malaria DR3b motif peptides,0.1700
LFVEALFQE,DR3 binding information,DRB1*0301 (DR3); [1],0.0051
AEKTNKGTG,DR3 binding information,DRB1*0301 (DR3); Malaria DR3b motif peptides,-0.0033
LPQDNRGNS,DR3 binding information,DRB1*0301 (DR3); Malaria DR3b motif peptides,-0.0033
DDIDEGIEK,A*0301 (binding information),HLA-A*0301; [2],0.0001
VLNELNYDN,DR3 binding information,DRB1*0301 (DR3); [1],-0.0033
VEVNKRKSK,DR3 binding information,DRB1*0301 (DR3); Malaria DR3b motif peptides,0.0880
YDNAGINLY,DR1 binding data,DRB1*0101 (DR1),0.0003
same,DR4w4 binding data,DRB1*0401 (DR4w4),-0.0009
same,DR4w15 binding data,DRB1*0405 (DR4w15),-0.0009
same,DR7 binding data,DRB1*0701 (DR7),-0.0003
same,DR8w2 binding data,DRB1*0802 (DR8w2),-0.0003
same,DR5w11 binding data,DRB1*1101 (DR5w11),-0.0002
same,DR5w12 binding data,DRB1*1201 (DR5w12),0.0001
same,DR2w2β2 binding data,DRB5*0101 (DR2w2β2),-0.0005
LVTVFLIFF,DR1 binding data,DRB1*0101 (DR1),0.0001
same,DR4w4 binding data,DRB1*0401 (DR4w4),0.0030
same,DR7 binding data,DRB1*0701 (DR7),0.0010
VPSDVPKNP,DR4w4 binding information,DRB1*0401 (DR4w4); [1],-0.0130
VLDNERKQS,DR3 binding information,DRB1*0301 (DR3); Malaria DR3b motif peptides,-0.0130
LEQDRLAKE,DR3 binding information,DRB1*0301 (DR3); [1],0.0038
KSLYDEIHK,A*0301 (binding information),HLA-A*0301; [4],0.0005
VWDEWSPCS,DR1 binding information,DRB1*0101 (DR1); [1],0.0001
same,DR3 binding information,DRB1*0301 (DR3); [1],-0.0041
same,DR4w4 binding information,DRB1*0401 (DR4w4); [1],-0.0009
same,DR4w15 binding information,DRB1*0405 (DR4w15); [1],-0.0009
same,DR7 binding information,DRB1*0701 (DR7),-0.0003
same,DR8w2 binding information,DRB1*0802 (DR8w2),-0.0003
same,DR5w11 binding information,DRB1*1101 (DR5w11),-0.0002
same,DR5w12 binding information,DRB1*1201 (DR5w12); [1],0.0001
same,DR2w2β2 binding information,DRB5*0101 (DR2w2β2),-0.0005
QSQDNNONRH (QSQDNNGNRH),A*0301 (binding information),HLA-A*0301; [3],0.0004
VDESEDITK,A*0301 (binding information),HLA-A*0301; [4],0.0002
ESLSEDITKY,A*0301 (binding information),HLA-A*0301; [2],0.0002
MTTNVEGRR,A*0301 (binding information),HLA-A*0301; [4],0.0002
NTEKGFHPFK,A*0301 (binding information),HLA-A*0301; [2],0.0047
LGEEDKDLD,DR3 binding information,DRB1*0301 (DR3); Malaria DR3b motif peptides,-0.0130
LNKEGKLIE,DR1 binding information,DRB1*0101 (DR1); Malaria DR3b motif peptides,0.0001
same,DR3 binding information,DRB1*0301 (DR3); Malaria DR3b motif peptides,-0.0140
same,DR4w4 binding information,DRB1*0401 (DR4w4); Malaria DR3b motif peptides,-0.0017
same,DR4w15 binding information,DRB1*0405 (DR4w15); Malaria DR3b motif peptides,-0.0047
same,DR7 binding information,DRB1*0701 (DR7),-0.0009
same,DR8w2 binding information,DRB1*0802 (DR8w2),-0.0007
same,DR5w11 binding information,DRB1*1101 (DR5w11),-0.0005
same,DR5w12 binding information,DRB1*1201 (DR5w12); Malaria DR3b motif peptides,-0.0003
same,DR2w2β2 binding information,DRB5*0101 (DR2w2β2),-0.0021
YKNDKQVNK,DR3 binding information,DRB1*0301 (DR3); [1],-0.0033
SDASICNKEK,A*0301 (binding information),HLA-A*0301; [3],0.0005
VQYDNFQDE,DR3 binding information,DRB1*0301 (DR3); [1],-0.0033
VPCGKGTISR,A*301 (binding data),HLA-A*0301; Table IX,0.0004
ISHEKTNR,A*0301 (binding information),HLA-A*0301; [4],0.0001
KILSVFFLA,A*0301 (binding information),HLA-A*0301; [2],0.1400
DTKKKNLERKK,A*301 (binding data),"HLA-A*0301; binding value, no unit given",0.0001
IKSNLRSGS,DR3 binding information,DRB1*0301 (DR3); Malaria DR3b motif peptides,0.0050
LANEKLQEQ,DR3 binding information,DRB1*0301 (DR3); [1],-0.0033
LEEKAAKET,DR1 binding data,DRB1*0101 (DR1),0.0001
same,DR4w4 binding data,DRB1*0401 (DR4w4),-0.0009
same,DR4w15 binding data,DRB1*0405 (DR4w15),-0.0009
same,DR7 binding data,DRB1*0701 (DR7),-0.0003
same,DR8w2 binding data,DRB1*0802 (DR8w2),-0.0002
same,DR5w11 binding data,DRB1*1101 (DR5w11),-0.0002
same,DR5w12 binding data,DRB1*1201 (DR5w12),0.0001
same,DR2w2β2 binding data,DRB5*0101 (DR2w2β2),-0.0005
FNKESLAEK,DR3 binding information,DRB1*0301 (DR3); [1],0.0040
QSKLEQERR,A*301 (binding data),"HLA-A*0301; binding value, no unit given",0.0002
